Assay [1] deals with T1, human IL-13 R130Q variant (R110Q of the mature chain) (human, UniProt P35225 35-146, Biotinylated on amines (NHS-LC-biotin, 4:1) in ELISA, panning and competition assays. The letters are unchanged.).
T1 construct: R130Q counts from Met 1 of the signal peptide, R110Q on the mature chain; Bought from Peprotech; also called IL-13 R110Q; b-R130Q
The experiment in a line: single-point (10 nM) phage Fab ELISA on biotinylated IL-13 R130Q. (An ELISA detects its analyte on a solid surface through an enzyme-linked reagent.)

Assay [2] deals with T1, human IL-13 R130Q variant (R110Q of the …). The experiment in a line: Ra2 binding inhibition ELISA, mAb in crude HEK293 supernatant, IL-13 binding to IL-13Ra2.

Substitutions are numbered along the chain they refer to.

B1: Fab clone 2C06 (IL-13-62 library) (Fab, V domains shown)
VH: QVTLKESGPVLVKPTETLTLTCTVSGFSLSTYGMGVGWIRQPPGKALEWLAHIWWDDVKRYNPALKSRLTISKDTSKSQVVLTMTNMDPVDTATYYCARMGSDYDVWFDYWGQGTLVTVSS
VL: EIVLTQSPATLSLSPGERATLSCRASKSISKYLAWYQQKPGQAPRLLIYSGSTQQSGIPARFSGSGSGTDFTLTISSLEPEDFAVYYCQQHDYPYTFGQGTKLEIK
notes: Fab on phage pIX; del = residue deleted
In the case of B1, the “Signal (% of Lc16Hc7)” value in assay [1] was 128%.

B2: Fab clone 2B07 (IL-13-62 library) (Fab, V domains shown)
VH: B1 VH
VL: EIVLTQSPATLSLSPGERATLSCRASKSISKYLAWYQQKPGQAPRLLIYSGSTLQSGIPARFSGSGSGTDFTLTISSLEPEDFAVYYCQQHDWGPYTFGQGTKLEIK
notes: Fab on phage pIX
Turning to B2, in assay [1], the “Signal (% of Lc16Hc7)” value is 144%.

B3: Fab clone without printed name, L-CDR3 Q D G del (IL-13-62 library) (Fab, V domains shown)
VH: B1 VH
VL: B1 VL with Q54L, H91Q, Y93G
notes: as for B1
With B3, the “Signal (% of Lc16Hc7)” value in assay [1] is 184%.

B4: mAb with Lc 3D01 (Lc6 variant) and Hc2 (antibody, V domains shown)
VH: B1 VH
VL: B2 VL with D92V, W93G
notes: human IgG1
For B4, the “% Ra2 Binding Inhibition” value in assay [2] worked out at 58.5%.

B5: Fab clone 1A06 (IL-13-62 library) (Fab, V domains shown)
VH: B1 VH
VL: B2 VL with D92E
notes: Fab on phage pIX
For B5, the “Signal (% of Lc16Hc7)” value in assay [1] was determined as 122%.

B6: mAb with Lc 2G01 (Lc6 variant) and Hc2 (antibody, V domains shown)
VH: B1 VH
VL: B2 VL with D92F
notes: human IgG1
Consider B6, for which the “% Ra2 Binding Inhibition” value in assay [2] turned out to be 81.2%.

B7: mAb with Lc 1H02 (Lc6 variant) and Hc2 (antibody, V domains shown)
VH: B1 VH
VL: B2 VL with H91Q, W93I
notes: human IgG1
For B7, the “% Ra2 Binding Inhibition” value in assay [2] was 81.7%.

B8: mAb with Lc 2A03 (Lc6 variant) and Hc2 (antibody, V domains shown)
VH: B1 VH
VL: B2 VL with D92E, W93S
notes: human IgG1
Take B8: in assay [2], the “% Ra2 Binding Inhibition” value worked out at 75.8%.

B9: mAb with Lc 5H04 (Lc6 variant) and Hc2 (antibody, V domains shown)
VH: B1 VH
VL: B2 VL with W93Y, G94A
notes: human IgG1
As for B9, the “% Ra2 Binding Inhibition” value in assay [2] was determined as 66.1%.

B10: Fab clone 2D04 (IL-13-62 library) (Fab, V domains shown)
VH: B1 VH
VL: B1 VL with Q54L, H91Q, Y93S
notes: as for B1
As to B10, the “Signal (% of Lc16Hc7)” value in assay [1] is 100%.

B11: mAb with Lc 2E06 (Lc6 variant) and Hc2 (antibody, V domains shown)
VH: B1 VH
VL: B2 VL with D92S, W93S
notes: human IgG1
As to B11, the “% Ra2 Binding Inhibition” value in assay [2] was 50.2%.

B12: mAb with Lc 2C01 (Lc6 variant) and Hc2 (antibody, V domains shown)
VH: B1 VH
VL: B2 VL with D92S, W93I
notes: human IgG1
As for B12, the “% Ra2 Binding Inhibition” value in assay [2] turned out to be 67.7%.

B13: mAb with Lc 5D03 (Lc6 variant) and Hc2 (antibody, V domains shown)
VH: B1 VH
VL: B2 VL with D92S, W93Y
notes: human IgG1
Turning to B13, the “% Ra2 Binding Inhibition” value in assay [2] amounted to 72.8%.

B14: mAb with Lc 2A01 (Lc6 variant) and Hc2 (antibody, V domains shown)
VH: B1 VH
VL: B2 VL with D92S, W93H
notes: human IgG1
As for B14, in assay [2], the “% Ra2 Binding Inhibition” value came out at 72.1%.

B15: mAb with Lc 2H01 (Lc6 variant) and Hc2 (antibody, V domains shown)
VH: B1 VH
VL: B2 VL with G94E
notes: human IgG1
On to B15, for which the “% Ra2 Binding Inhibition” value in assay [2] turned out to be 80%.

B16: mAb with Lc 3G01 (Lc6 variant) and Hc2 (antibody, V domains shown)
VH: B1 VH
VL: B2 VL with H91P, D92L, W93D, G94V
notes: human IgG1
With B16, in assay [2], the “% Ra2 Binding Inhibition” value came out at 68.4%.

B17: Fab clone 1A02 (IL-13-62 library) (Fab, V domains shown)
VH: B1 VH
VL: B2 VL with D92S, G94A
notes: Fab on phage pIX
Consider B17, for which the “Signal (% of Lc16Hc7)” value in assay [1] came out at 120%.

B18: Fab clone 1A07 (IL-13-62 library) (Fab, V domains shown)
VH: B1 VH
VL: B2 VL with W93N, G94S
notes: Fab on phage pIX
In the case of B18, the “Signal (% of Lc16Hc7)” value in assay [1] came to 120%.

B19: mAb with Lc 3C06 (Lc6 variant) and Hc2 (antibody, V domains shown)
VH: B1 VH
VL: B2 VL with D92S, W93V
notes: human IgG1
As for B19, the “% Ra2 Binding Inhibition” value in assay [2] stood at 62.1%.

B20: mAb with Lc 5G02 (Lc6 variant) and Hc2 (antibody, V domains shown)
VH: B1 VH
VL: B2 VL with S56G, D92L, W93D, G94S
notes: human IgG1
As for B20, in assay [2], the “% Ra2 Binding Inhibition” value was 66.2%.

B21: mAb with Lc 3A04 (Lc6 variant) and Hc2 (antibody, V domains shown)
VH: B1 VH
VL: B2 VL with H91P, D92L, W93D, G94S
notes: human IgG1
Take B21: the “% Ra2 Binding Inhibition” value in assay [2] is 67%.

B22: mAb with Lc 2C09 (Lc6 variant) and Hc2 (antibody, V domains shown)
VH: B1 VH
VL: B2 VL with D92E
notes: human IgG1
B22: in assay [2], the “% Ra2 Binding Inhibition” value is 87.6%.

B23: mAb with Lc 2E04 (Lc6 variant) and Hc2 (antibody, V domains shown)
VH: B1 VH
VL: B2 VL with H91P, D92L, W93E, G94A
notes: human IgG1
For B23, the “% Ra2 Binding Inhibition” value in assay [2] worked out at 56.6%.

B24: mAb with Lc 2H08 (Lc6 variant) and Hc2 (antibody, V domains shown)
VH: B1 VH
VL: B2 VL with D92L, W93D, G94S
notes: human IgG1
For the molecule B24, in assay [2], the “% Ra2 Binding Inhibition” value is 62.3%.

B25: mAb with Lc 2E12 (Lc6 variant) and Hc2 (antibody, V domains shown)
VH: B1 VH
VL: B2 VL with G94S
notes: human IgG1
As for B25, the “% Ra2 Binding Inhibition” value in assay [2] came out at 83%.

B26: mAb with Lc 2H09 (Lc6 variant) and Hc2 (antibody, V domains shown)
VH: B1 VH
VL: B2 VL with H91P, D92I, W93D, G94A
notes: human IgG1
As for B26, the “% Ra2 Binding Inhibition” value in assay [2] was 62.5%.

B27: mAb with Lc 3E03 (Lc6 variant) and Hc2 (antibody, V domains shown)
VH: B1 VH
VL: B2 VL with D92N, W93H
notes: human IgG1
For B27, in assay [2], the “% Ra2 Binding Inhibition” value is 70.9%.

B28: mAb with Lc 3E05 (Lc6 variant) and Hc2 (antibody, V domains shown)
VH: B1 VH
VL: B2 VL with H91P, D92L, W93D, G94T
notes: human IgG1
Take B28: in assay [2], the “% Ra2 Binding Inhibition” value came out at 70.8%.

B29: mAb with Lc 3A09 (Lc6 variant) and Hc2 (antibody, V domains shown)
VH: B1 VH
VL: B2 VL with W93L
notes: human IgG1
With B29, in assay [2], the “% Ra2 Binding Inhibition” value came to 76.5%.

B30: Fab clone 1A05 (IL-13-62 library) (Fab, V domains shown)
VH: B1 VH
VL: B2 VL with W93Y, G94A
notes: Fab on phage pIX
For the molecule B30, the “Signal (% of Lc16Hc7)” value in assay [1] was determined as 136%.

B31: mAb with Lc 3G02 (Lc6 variant) and Hc2 (antibody, V domains shown)
VH: B1 VH
VL: B2 VL with D92L, W93N
notes: human IgG1
B31: in assay [2], the “% Ra2 Binding Inhibition” value was determined as 66.9%.

B32: mAb with Lc 2A12 (Lc6 variant) and Hc2 (antibody, V domains shown)
VH: B1 VH
VL: B2 VL with W93P
notes: human IgG1
For the molecule B32, in assay [2], the “% Ra2 Binding Inhibition” value was determined as 78.5%.

B33: mAb with Lc 2E01 (Lc6 variant, Table 8) and Hc2 (antibody, V domains shown)
VH: B1 VH
VL: B2 VL with D92N, W93E, G94A
notes: human IgG1
For the molecule B33, the “% Ra2 Binding Inhibition” value in assay [2] was 53.9%.

B34: mAb with Lc 2C05 (Lc6 variant) and Hc2 (antibody, V domains shown)
VH: B1 VH
VL: B2 VL with H91Q, W93L
notes: human IgG1
B34: the “% Ra2 Binding Inhibition” value in assay [2] came out at 83.8%.

B35: mAb with Lc 5B03 (Lc6 variant) and Hc2 (antibody, V domains shown)
VH: B1 VH
VL: B2 VL with Q38R, D92N, W93E, G94A
notes: human IgG1
Take B35: in assay [2], the “% Ra2 Binding Inhibition” value was 63%.

B36: mAb with Lc 1G02 (Lc6 variant, Table 8) and Hc2 (antibody, V domains shown)
VH: B1 VH
VL: B2 VL with D92S, G94A
notes: human IgG1
Consider B36, for which, in assay [2], the “% Ra2 Binding Inhibition” value came to 55.2%.

B37: mAb with Lc 3B06 (Lc6 variant) and Hc2 (antibody, V domains shown)
VH: B1 VH
VL: B2 VL with D92L, W93M
notes: human IgG1
For B37, in assay [2], the “% Ra2 Binding Inhibition” value is 74.3%.

B38: mAb with Lc 1F03 (Lc6 variant, Table 8) and Hc2 (antibody, V domains shown)
VH: B1 VH
VL: B2 VL with W93R, G94D
notes: human IgG1
Consider B38, for which the “% Ra2 Binding Inhibition” value in assay [2] amounted to 57.6%.

B39: mAb with Lc 5A02 (Lc6 variant) and Hc2 (antibody, V domains shown)
VH: B1 VH
VL: B2 VL with H91Q, W93Y
notes: human IgG1
With B39, in assay [2], the “% Ra2 Binding Inhibition” value amounted to 78.4%.

B40: mAb with Lc 3A05 (Lc6 variant) and Hc2 (antibody, V domains shown)
VH: B1 VH
VL: B2 VL with W93N, G94S
notes: human IgG1
Turning to B40, in assay [2], the “% Ra2 Binding Inhibition” value was determined as 55.5%.

B41: mAb with Lc 2C04 (Lc6 variant) and Hc2 (antibody, V domains shown)
VH: B1 VH
VL: B2 VL with D92N, W93F
notes: human IgG1
B41: the “% Ra2 Binding Inhibition” value in assay [2] worked out at 61.9%.

Values taken from patent US20120045438A1 (Janssen / Centocor, published 2012).
